In patent US20160159929A1 (ABLBIO, published 2016):

Tests used:
[1] = target: T1, human DLL4 (27-251)-Fc alanine substitution mutant at position 64 (histidine) (human, UniProt Q9NR61 27-251); assay: Western blot of mutant DLL4 (27-251)-Fc, detected with HRP anti-human Fab
T1 construct: range 27-251; also called amino acid mutant at position 64; not shown: Fc protein
Method: The mutant expression media incubated for 4 days were centrifuged at 1000 rpm at room temperature for 10 minutes to remove the suspended material, and then filtered through a 0.45-μm syringe. For Western blotting analysis, the level of the protein in the mutant expression media were quantified using Octet® system (ForteBio) so that a uniform amount of the mutant would be loaded on SDS gel. Next, 20 μl of each of the mutant expression media was loaded on each of two Novex 4-12% Bis/Tris gels, and subjected to gel electrophoresis using MOPS buffer at 140 V for 50 minutes. As a control, a protein encoding a deletion fragment (amino acid residues 27 to 251) of the extracellular domain of wild-type DLL4 was used. After completion of the electrophoresis, the protein band was transferred to a polyvinylidene difluoride membrane. A total of two processes were performed.

[2] = target: T2, human DLL4 protein (R&D Systems, Cat: 1506-D4/CF), extracellular domain, residues 27 to 524, C-terminal … (human, UniProt Q9NR61 27-524); assay: ELISA on plate-coated rhDLL4, HRP anti-Fab detection, absorbance at 450 nm; the value is column C (midpoint) of the printed 4-P fit; preparation labelled (GS pool) cell line; the Conc axis prints no unit, nM is taken from paragraph 139
T2 construct: range 27-524; Bought protein; also called rhDLL4; hDLL4
Method: (§1) The binding affinities of the dual-targeting proteins for DLL4 and VEGF were assessed using an ELISA-based solution competition assay. Specifically, a 96-well plate (Nunc-Immuno Plate, NUNC, Rochester, N.Y.) was coated with 50 ng/ml of hVEGF (R&D Systems, cat: 293-VE) and 200 ng/ml of rhDLL4 (R&D Systems, cat: 1506-D4/CF) in an amount of 100 μl per well at 4° C. overnight, and non-specific binding sites were blocked with BSA (bovine serum albumin) for 2 hours. The antibody on the 96-well microtiter plate was diluted 1/5-fold from 128 nM and 64 nM, and 100 μl of each of the dilutions was added to each well of the plate coated with hDLL4 and hVEGF proteins. Then, the plate was incubated for 2 hours, and washed five times with 0.05% tween 20-containing PBS. In order to detect the plate-bound antibody, an HRP-conjugated anti-Fab antibody (Pierce, cat: 31414)) was diluted at a ratio of 1:40,000, transferred to the washed 96-well microtiter plate, and then allowed to react at 37° C. for 1 hour. After the reaction, color development was performed using a colorimetric substrate (3,3′,5,5′-tetramethylbenzidine; Sigma-Aldrich). The enzymatic reaction was stopped using 0.5 mol/l of sulfuric acid. The absorbance at 450 nm was measured using SpectraMax 190 (molecular device).

[3] = target: T3, human VEGF (hVEGF, R&D Systems, cat: 293-VE) (human, UniProt P15692-4 27-191); assay: ELISA on plate-coated hVEGF, HRP anti-Fab detection, absorbance at 450 nm; the value is column C (midpoint) of the printed 4-P fit y = (A - D)/(1 + (x/C)^B) + D; preparation labelled Transient; the Conc axis prints no unit, nM is taken from paragraph 139 (dilutions from 128 nM and 64 nM)
T3 construct: Bought protein; also called vascular endothelial growth factor
Method: as §1

[4] = target: T2, human DLL4 protein (R&D Systems, Cat: …); assay: SPR (Biacore T200), hDLL4 immobilised on CM5, antibody as analyte, bivalent binding model
Method: (§2) Specifically, Biacore T200 was used in SPR analysis and HBS-EP (10 mM HEPES, pH7.4, 150 mM NaCl, 3 mM EDTA, […] surfactant P20) was used as a running buffer. Surface preparation was done by using a surface preparation target immobilization tool of a wizard program (condition: 25° C., 5 μl/min). Ligands (hVEGF and hDLL4) were diluted in 10 mM sodium acetate buffer (pH 4.5) to final concentrations of 5 μg/ml and 4 μg/ml, respectively, and then immobilized to the surface of CM5 chip by a target immobilization level for each test group. In the immobilization process, two flow cells were included as one set wherein the first and third flow cells were set as a blank, the second flow cell has hVEGF immobilized to the surface thereof, and the fourth flow cell was set as hDLL4 in the present experiment. The first and third flow cells acted as a reference to account for experimental variability due to nonspecific bindings and buffer effects, and in the analysis, subtracted RU values (Fc2−Fc1, and Fc4−Fc3) were used as experimental results. The Avastin-DLL4 BsAb dual-targeting antibody that binds to hVEGF and hDLL4 was diluted in a running buffer to a final molar concentration of 100 nM, serially diluted 1/2 times, and each of the 5 dilutions was analyzed. The sample to be analyzed was prepared to have high purity and high concentration, enough to be diluted more than 100 times at minimum, thereby minimizing buffer effect. All analysis was done by using a wizard program, screening duplicates for each sample and a regeneration step was included in between each analysis step, so that the standard of experiment remains constant.
(§3) The experimental results were analyzed by Biaevaluation software version 4.0. At this time, to determine the RU values (Fc2−Fc1 and Fc4−Fc3), the baseline was set to zero, the value measured at a buffer injection part (analyte, 0 nM) was subtracted from a whole sensorgram. Then, the resulting RU value was analyzed by a Bivalent binding model to determine a binding affinity. The factors to be analyzed include kₐ (M⁻¹s⁻¹), kd (s⁻¹), and KD (M).

[5] = target: T3, human VEGF (hVEGF, R&D Systems, cat: …); assay: ELISA on plate-coated hVEGF, HRP anti-Fab detection, absorbance at 450 nm; the value is column C (midpoint) of the printed 4-P fit; preparation labelled (GS pool) cell line; the Conc axis prints no unit, nM is taken from paragraph 139
Method: as §1

[6] = target: T2, human DLL4 protein (R&D Systems, Cat: …); assay: competition ELISA: antibody premixed with human DLL4-His (600 ng/ml), transferred to plate-coated hNotch-1-hFc, bound DLL4 detected with anti-His HRP
Method: The neutralization effect of the Avastin-DLL4 BsAb dual-targeting antibody was assessed using an ELISA-based solution competition assay. Specifically, each well of a 96-well microtiter plate (Nunc-Immuno Plate, NUNC, Rochester, N.Y.) was coated with 100 μl of 500 ng/ml of hNotch-1-hFc protein (R&D Systems) (diluted in PBS) at 4° C. overnight, and then treated with BSA for 2 hours to block non-specific binding sites.
The Avastin-DLL4 BsAb dual-targeting antibody (purified protein) on the 96-well microtiter plate was premixed with serial dilutions of antigen protein (human DLL4-His, 600 ng/ml) at an […] concentration ranging from 0 nM to 140 nM. The antigen/antibody mixture was incubated for 30 minutes, and then transferred to a microtiter plate precoated with the DLL4 receptor hNotch-1 protein (50 ng/well) in order to measure free […]. Then, the plate was incubated for 2 hours and washed five times with 0.05% tween 20-containing PBS. In order to detect the DLL4 antigen bound to the plate, an HRP-conjugated His […] antibody reagent (Roche applied science) was diluted at a ratio of 1:800, and the washed microtiter plate was treated with the diluted antibody reagent, and then allowed to react at 37° C. for 1 hour. […]

[7] = target: T2, human DLL4 protein (R&D Systems, Cat: …); assay: ELISA on plate-coated rhDLL4, HRP anti-Fab detection, absorbance at 450 nm; the value is column C (midpoint) of the printed 4-P fit; preparation labelled Transient; the Conc axis prints no unit, nM is taken from paragraph 139
Method: as §1

[8] = target: T3, human VEGF (hVEGF, R&D Systems, cat: …); assay: SPR (Biacore T200), hVEGF immobilised on CM5, antibody as analyte, bivalent binding model
Method: as §2, §3

T3 sequence (P15692 other isoform, or with tags, fused parts or gaps limits assumed): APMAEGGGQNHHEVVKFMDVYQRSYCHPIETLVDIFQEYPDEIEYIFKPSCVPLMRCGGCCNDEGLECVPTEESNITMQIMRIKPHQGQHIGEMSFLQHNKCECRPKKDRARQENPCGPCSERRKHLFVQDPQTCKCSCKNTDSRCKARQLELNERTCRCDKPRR
T2 sequence (Q9NR61 other isoform, or with tags, fused parts or gaps limits assumed): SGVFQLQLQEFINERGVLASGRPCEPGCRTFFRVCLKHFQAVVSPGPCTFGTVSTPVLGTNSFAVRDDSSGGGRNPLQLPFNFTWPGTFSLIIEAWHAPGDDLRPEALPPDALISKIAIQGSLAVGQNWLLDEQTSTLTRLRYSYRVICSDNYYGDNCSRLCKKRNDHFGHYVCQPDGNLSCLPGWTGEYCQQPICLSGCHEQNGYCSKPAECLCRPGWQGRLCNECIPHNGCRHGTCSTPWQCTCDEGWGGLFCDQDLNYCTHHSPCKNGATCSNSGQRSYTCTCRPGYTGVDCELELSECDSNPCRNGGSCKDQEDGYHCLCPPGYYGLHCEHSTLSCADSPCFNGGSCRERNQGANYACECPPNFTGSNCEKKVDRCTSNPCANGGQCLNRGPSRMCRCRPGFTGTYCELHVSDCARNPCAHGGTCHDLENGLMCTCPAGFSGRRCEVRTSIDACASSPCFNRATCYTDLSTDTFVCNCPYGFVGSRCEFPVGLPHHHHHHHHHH
T1 sequence (Q9NR61 other isoform, or with tags, fused parts or gaps mutant limits assumed): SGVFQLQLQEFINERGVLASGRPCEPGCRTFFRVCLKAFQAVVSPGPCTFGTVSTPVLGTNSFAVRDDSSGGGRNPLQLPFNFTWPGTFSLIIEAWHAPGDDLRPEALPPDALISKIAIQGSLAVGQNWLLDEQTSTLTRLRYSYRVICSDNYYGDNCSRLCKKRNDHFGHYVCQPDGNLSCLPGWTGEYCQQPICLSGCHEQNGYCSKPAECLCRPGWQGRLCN

binding result [1] | EC50 [2] [nM] | EC50 [3] [nM] | Kd [4] [nM] | koff [4] [s⁻¹] | kon [4] [M⁻¹ s⁻¹] | EC50 [5] [nM] | IC50 [6] [nM] | EC50 [7] [nM] | Kd [8] [nM] | koff [8] [s⁻¹] | kon [8] [M⁻¹ s⁻¹] | Binder
no binding (tested: 1 µg/mL) |  |  |  |  |  |  |  |  |  |  |  | MLCK-2 anti-DLL4 antibody (antibody, V domains shown, also called MLCK2 antibody) VH: EVQLLESGGGLVQPGGSLRLSCAASGFTFSDYAMSWVRQAPGKCLEWVSWIYSGSGNKYYADSVKGRFTISRDNSKNTLYLQMNSLRAEDTAVYYCARADWPFDYWGQGTLVTVSS VL: QSVLTQPPSASGTPGQRVTISCTGSSSNIGSNDVTWYQQLPGTAPKLLIYADSKRPSGVPDRFSGSKSGTSASLAISGLRSEDEADYYCGTWDYSLSAYVFGCGTKLTVL
 | 0.261 | 0.337 | 30.2 | 0.000587 | 19400 | 0.43 | 1.12 | 0.264 | 0.126 | 1.68e-06 | 13400 | Avastin-DLL4 BsAb dual-targeting antibody (bispecific antibody, made in CHO cells; also called VEGF-DLL4 BsAb; dual-targeting protein) heavy: EVQLVESGGGLVQPGGSLRLSCAASGYTFTNYGMNWVRQAPGKGLEWVGWINTYTGEPTYAADFKRRFTFSLDTSKSTAYLQMNSLRAEDTAVYYCAKYPHYYGSSHWYFDVWGQGTLVTVSSASTKGPSVFPLAPSSKSTSGGTAALGCLVKDVFPEPVTVSWNSGALTSGVHTFPAVLQSSGLYSLSSVVTVPSSSLGTQTYICNVNHKPSNTKVDKKVEPKSCDKTHTCPPCPAPELLGGPSYFLFPPKPKDTLMISRTPEVTCVVVDVSHEDPEVKFNWYVDGVEVHNAKTKPREEQYNSTYRVVSVLTVLHQDWLNGKEYKCKVSNKALPAPIEKTISKAKGQPREPQVYTLPPSRHMTKNQVSLTCLVKGFYPSDIAVEWESNGQPENNYKTTPPVLDSDGSFFLYSKLTVDKSRWQQGNVFSCSVMHEALHNHYTQKSLSLSPGKGGGGSGGGGSGGGGSQSVLTQPPSASGTPGQRVTISCTGSSSNIGSNDVTWYQQLPGTAPKLLIYADSKRPSGVPDRFSGSKSGTSASLAISGLRSEDEADYYCGTWDYSLSAYVFGCGTKLTVLGGGGSGGGGSGGGGSGGGGSEVQLLESGGGLVQPGGSLRLSCAASGFTFSDYAMSWVRQAPGKCLEWVSWIYSGSGNKYYADSVKGRFTISRDNSKNTLYLQMNSLRAEDTAVYYCARADWPFDYWGQGTLVTVSS light: not shown
